The source of these data is patent US20190389970A1.

Experiment [1] has as its target Free BSA (Sigma A6003) (UniProt P02769). Briefly: ELISA, free BSA coated at 300 ng/well, anti-IgG (gamma) detection. (ELISA stands for enzyme-linked immunosorbent assay.)
The target is the same in experiment [2]. Briefly: ELISA, free BSA coated at 500 ng/well in sodium bicarbonate, gamma detection, antibody at 10 µg/ml.
The target is the same in experiment [3]. Briefly: ELISA, free BSA coated at 500 ng/well in sodium bicarbonate, gamma detection, antibody at 0.1 µg/ml.
For experiment [4] the target is unchanged. The experiment is described as follows: ELISA, free BSA coated at 500 ng/well in sodium bicarbonate, gamma detection, antibody at 1 µg/ml.

Chain of UniProt P02769 (P02769 25-607 limits assumed): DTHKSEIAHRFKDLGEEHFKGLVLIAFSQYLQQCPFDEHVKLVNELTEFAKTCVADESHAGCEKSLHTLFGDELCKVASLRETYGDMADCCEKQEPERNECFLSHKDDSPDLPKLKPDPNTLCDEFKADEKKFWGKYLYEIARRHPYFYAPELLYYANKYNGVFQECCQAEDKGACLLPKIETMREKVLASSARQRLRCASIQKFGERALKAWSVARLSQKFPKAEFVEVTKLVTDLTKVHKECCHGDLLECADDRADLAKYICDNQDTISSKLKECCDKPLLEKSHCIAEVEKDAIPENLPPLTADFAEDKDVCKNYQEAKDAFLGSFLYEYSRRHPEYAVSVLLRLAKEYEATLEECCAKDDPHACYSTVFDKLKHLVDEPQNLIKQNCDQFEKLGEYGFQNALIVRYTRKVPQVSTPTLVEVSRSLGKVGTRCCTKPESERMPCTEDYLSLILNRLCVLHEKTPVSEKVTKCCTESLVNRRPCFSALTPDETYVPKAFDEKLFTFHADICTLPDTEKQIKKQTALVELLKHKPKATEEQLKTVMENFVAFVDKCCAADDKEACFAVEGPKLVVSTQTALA

B1: 7B10 (antibody, IgM, V domains shown)
VH: QVQLQQSGAELAKPGASVKLSCKASGYTFTSYWMHWVKQRPGQGLEWIGYINPSSGYTKYNQKFKDKATLTADKSSSTAYMQLSSLTYEDSAVYYCARGGYYGFAYWGQGTLVTVSA
VL: QIVLTQSPALMSASPGEKVTMTCSASSSVSYMYWYQQKPRSSPKPWIYLTSNLASGVPARFSGSGSGTSYSLTISSMEAEDAATYYCQQWSSNPLTFGAGTKLELK
B1 displayed an OD with Free BSA (Sigma A6003) [1] of 0.077 OD.

B2: 9H11 (antibody, IgM, V domains shown)
VH: B1 VH
VL: B1 VL
In the experiment with Free BSA (Sigma A6003) [1], B2 gave an OD of 0.105 OD.

B3: 6B5 (antibody, V domains shown)
VH: QVQLQQSDAELVKPGASVKISCKVSGYTFTDHTIHWMKQRPEQGLEWIGYNYPRDGSTKYNEKFKGKATLTADKSSSTAYMQLNSLTSEDSAVYFCAKGFITTVVPSAYWGQGTLVTVSA
VL: DVQITQSPSYLAASPGETITINCRASKSISKYLAWYQEKPGKTNKLLIYSGSTLQSGIPSRFSGSGSGTDFTLTISSLEPEDFAMYYCQQHNEYPWTFGGGTKLEIK
Turning to B3, the OD in the experiment with Free BSA (Sigma A6003) [2] worked out at 0.15 OD; with Free BSA (Sigma A6003) [1], 1.29 OD; with Free BSA (Sigma A6003) [3] it was 0.079 OD; with Free BSA (Sigma A6003) [4], 0.119 OD.

B4: 6C8 (antibody, V domains shown)
VH: QVQLQQSGAELVKPGASVKISCKASGYAFSSYWMNWVKQRPGKGLEWIGQIYPGDGDTNYNGKFKGKATLTADKSSSTAYMQLSSLTSEDSAVYFCTRRCYYGLYFDVWGTGTTVTVSS
VL: DIKMTQSPSSRYASLGERVTITCKASQDINRYLSWFQQKPGKSPKTLIYRANRLVDGVPSRFSGSGSGQDYSLTISSLEYEDMGIYYCLQYDEFPYTFGGGTKLEIK
For B4, the OD in the experiment with Free BSA (Sigma A6003) [2] came out at 0.062 OD; in the experiment with Free BSA (Sigma A6003) [1], 0.098 OD; with Free BSA (Sigma A6003) [3] it was 0.056 OD; with Free BSA (Sigma A6003) [4] it was 0.057 OD.

B5: 9H10 (antibody, IgM, V domains shown)
VH: QVQLKQSGPGLVQPSQSLSITCTVSGFSLTSYGVHWVRQSPGKGLEWLGVIWSGGSTDYNAAFISRLSISKDNSKSQVFFKMNSLQADDTAIYYCARNYGYDYAMDYWGQGTSVTVSS
VL: DILLTQSPAILSVSPGERVSFSCRASQSIGTSIHWYQQRTNGSPRLLIKYASESISGIPSRFSGSGSGTDFTLSINSVESEDIADYYCQQSNSWPFTFGSGTKLEIK
Molecule B5 showed an OD with Free BSA (Sigma A6003) [1] of 0.095 OD.
